Laboratory results taken from patent EP4722231A1 (Shanxi Jinbo Bio-Pharmaceutical Co., Ltd., dated 2025).

Key:
Test in all cases: cell-based or functional assay
[1] = target: SARS-CoV-2 Omicron BA.2 S protein (SARS-CoV-2 (BA.2 variant))
[2] = target: SARS-CoV-2 BA.2.75 S protein (SARS-CoV-2 (BA.2.75 variant))
[3] = target: SARS-CoV-2 BA.2.86 S protein (SARS-CoV-2 (BA.2.86 variant))
[4] = target: SARS-CoV-2 XBB.1.5 S protein (SARS-CoV-2 (XBB.1.5 variant))
[5] = target: SARS-CoV-2 EG.5 S protein (SARS-CoV-2 (EG.5 variant))

Q: How did the “Inhibitory activity, IC50 (nM), pseudovirus infection of Caco2 cells (luciferase)” value (from here on “Inhibitory activity, IC50 (nM)”) [1] turn out when SLDQINVTFLDLEYEMKKLEEAIKKLEESYIDLKEL [prokaryote-expressed polypeptide reEK1 (recombinant polypeptide HCoV-EK1, TEKB)] was run?
A: Its value is 354 nM.

Q: What about the “Inhibitory activity, IC50 (nM)” value [2] of the same binder?
A: The value was 420 nM.

Q: What about the “Inhibitory activity, IC50 (nM)” value [3] of the same binder?
A: Its value is 298 nM.

Q: What about the “Inhibitory activity, IC50 (nM)” value [4] of the same binder?
A: Its value is 137 nM.

Q: And the “Inhibitory activity, IC50 (nM)” value [5]?
A: Its value is 331 nM.

Q: For Ac-SLDQINVTFLDLEYEMKKLEEAIKKLEESYIDLKEL-NH2 [chemically synthesized polypeptide EK1], which “Inhibitory activity, IC50 (nM)” value [1] is on record?
A: The value was 228 nM.

Q: What about the “Inhibitory activity, IC50 (nM)” value [2] of the same binder?
A: Its value is 438 nM.

Q: What about the “Inhibitory activity, IC50 (nM)” value [3] of the same binder?
A: The value was 392 nM.

Q: What about the “Inhibitory activity, IC50 (nM)” value [4] of the same binder?
A: The value was 291 nM.

Q: And the “Inhibitory activity, IC50 (nM)” value [5]?
A: Its value is 401 nM.
